Measurements from patent US20240016943.

What was measured:
[1] = biological target: B (MAX basic helix alone) (UniProt P61244); experiment: EMSA; conditions: basic helix alone
[2] = biological target: B-Z (MAX-derived STR, cross-dimer) (UniProt P61244); experiment: EMSA; conditions: 95% CI 13-19; also 16 in Tables 12, 14; 20 mM HEPES pH 8.0, 150 mM NaCl, 2 mM MgCl2
B-Z helical tetramer = B-Z helical tetramer (UniProt P61244+P61244); experiment: EMSA
B-Z1 = B-Z1 (UniProt P61244); experiment: EMSA; conditions: apparent; Table 14 gives 45
B-Z2 = B-Z2 (UniProt P61244); experiment: EMSA; conditions: apparent; Table 14 gives 22
B-Z3 = B-Z3 (UniProt P61244); experiment: EMSA; conditions: apparent; Table 14 gives 15
B-Z4 = B-Z4 (UniProt P61244); experiment: EMSA; conditions: apparent; Table 14 gives 14
[3] = biological target: B-Z5 (C-terminally truncated zipper) (UniProt P61244); experiment: EMSA; conditions: apparent; Table 14 gives 88
B-ZL1 = B-ZL1 (UniProt P61244+P61244); experiment: EMSA; conditions: listed as B-ZLI1; Table 14 gives 19
B-ZM3 = B-ZM3 (UniProt P61244+P61244); experiment: EMSA; conditions: 25 nM sDBD
B-ZM4 [4] = biological target: B-ZM4 (UniProt P61244); experiment: EMSA
[5] = system: T1, B1 (stapled MAX basic helix alone); experiment: EMSA; conditions: stapled basic helix alone
T1 sequence: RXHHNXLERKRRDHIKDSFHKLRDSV

B1-Z1 = system: T2, B1-Z1; experiment: EMSA
T2 sequence 1: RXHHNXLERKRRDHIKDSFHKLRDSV
T2 sequence 2: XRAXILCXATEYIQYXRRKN

B1-Z2 helical tetramer [6] = system: T3, B1-Z2 helical tetramer; experiment: EMSA
T3 sequence 1: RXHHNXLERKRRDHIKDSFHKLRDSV
T3 sequence 2: XAQILCKATEYIQXMRRXN

B1-Z2 = system: T4, B1-Z2; experiment: EMSA; conditions: 95% CI 22-29
T4 sequence 1: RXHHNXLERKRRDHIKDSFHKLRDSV
T4 sequence 2: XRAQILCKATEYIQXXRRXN

B1-Z4 = system: T5, B1-Z4; experiment: EMSA; conditions: 95% CI 37-43
T5 sequence 1: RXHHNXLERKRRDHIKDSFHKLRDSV
T5 sequence 2: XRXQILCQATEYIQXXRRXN

B1-Z = system: T6, B1-Z; experiment: EMSA; conditions: apparent; Table 14 gives 17
T6 sequence 1: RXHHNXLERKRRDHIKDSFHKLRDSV
T6 sequence 2: XRAQILCKATEYIQYXRRK

B10-Z6 [7] = biological target: B10-Z6 (UniProt P61244); experiment: EMSA
B11-Z10 = B11-Z10 (UniProt P61244); experiment: EMSA; conditions: method inferred
B11-Z4 [8] = biological target: B11-Z4 (UniProt P61244); experiment: EMSA; conditions: 95% CI 16-20; Table 14 gives 38
B11-Z7 = B11-Z7 (UniProt P61244); experiment: EMSA
B11-Z70 = B11-Z70 (UniProt P61244); experiment: EMSA; conditions: method inferred
B11-Z80 (STR1180) = B11-Z80 (STR1180) (UniProt P61244); experiment: EMSA; conditions: method inferred
B11-Z81 = B11-Z81 (UniProt P61244); experiment: EMSA; conditions: method inferred
B11-ZM4 [9] = experiment: EMSA
B11s-Z8 = B11s-Z8 (UniProt P61244); experiment: EMSA; conditions: method inferred
B12-Z6 [10] = system: T7, B12-Z6; experiment: EMSA
T7 sequence 1: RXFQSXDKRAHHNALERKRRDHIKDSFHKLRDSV
T7 sequence 2: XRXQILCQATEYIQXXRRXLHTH

B2-Z2 = system: T8, B2-Z2; experiment: EMSA
T8 sequence 1: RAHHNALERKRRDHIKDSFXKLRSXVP
T8 sequence 2: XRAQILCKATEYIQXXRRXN

B2-Z4 = system: T9, B2-Z4; experiment: EMSA
T9 sequence 1: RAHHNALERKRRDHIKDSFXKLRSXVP
T9 sequence 2: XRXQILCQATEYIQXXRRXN

B2-Z = system: T10, B2-Z; experiment: EMSA; conditions: apparent; Table 14 gives 15
T10 sequence 1: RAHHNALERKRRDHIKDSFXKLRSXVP
T10 sequence 2: XRAQILCKATEYIQYXRRK

B3-Z = system: T11, B3-Z; experiment: EMSA; conditions: apparent; Table 14 gives 76
T11 sequence 1: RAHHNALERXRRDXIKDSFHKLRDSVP
T11 sequence 2: XRAQILCKATEYIQYXRRK

B4-Z = system: T12, B4-Z; experiment: EMSA; conditions: apparent; Table 14 gives 25 (conflict)
T12 sequence 1: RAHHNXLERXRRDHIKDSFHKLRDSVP
T12 sequence 2: XRAQILCKATEYIQYXRRK

B5-Z4 = system: T13, B5-Z4; experiment: EMSA; conditions: 95% CI 98-126; Table 14 gives 118
T13 sequence 1: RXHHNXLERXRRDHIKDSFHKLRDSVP
T13 sequence 2: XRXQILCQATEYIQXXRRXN

B6-Z4 = system: T14, B6-Z4; experiment: EMSA; conditions: 95% CI 49-66
T14 sequence 1: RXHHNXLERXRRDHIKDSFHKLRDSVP
T14 sequence 2: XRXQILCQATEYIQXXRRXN

B7-Z4 = system: T15, B7-Z4; experiment: EMSA
T15 sequence 1: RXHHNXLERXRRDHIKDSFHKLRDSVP
T15 sequence 2: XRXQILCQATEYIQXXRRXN

B7-Z = system: T16, B7-Z; experiment: EMSA; conditions: apparent; Table 14 gives 173
T16 sequence 1: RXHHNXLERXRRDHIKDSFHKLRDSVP
T16 sequence 2: XRAQILCKATEYIQYXRRK

B8-Z4 = system: T17, B8-Z4; experiment: EMSA
T17 sequence 1: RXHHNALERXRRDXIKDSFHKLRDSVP
T17 sequence 2: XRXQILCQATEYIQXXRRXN

B8-Z = system: T18, B8-Z; experiment: EMSA; conditions: apparent; Table 14 gives 672 (conflict)
T18 sequence 1: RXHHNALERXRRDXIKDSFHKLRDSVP
T18 sequence 2: XRAQILCKATEYIQYXRRK

BLI1-Z [11] = biological target: BLI1-Z (UniProt P61244); experiment: EMSA; conditions: apparent; Table 14 gives 12
BLI1-ZL1 [12] = biological target: T19, BLI1-ZL1 (UniProt P61244+P61244); experiment: EMSA; conditions: 95% CI 14-35; Table 14 gives 19
BLI1-ZM4 [13] = biological target: BLI1-ZM4 (UniProt P61244); experiment: EMSA
BLI1-ZM5 = BLI1-ZM5 (UniProt P61244); experiment: EMSA
BLI1s-Z [14] = biological target: BLI1s-Z (UniProt P61244); experiment: EMSA; conditions: 25 nM sDBD
BLI2-ZL1 = BLI2-ZL1 (UniProt P61244); experiment: EMSA; conditions: 500 nM sDBD
BLI2-Z [15] = experiment: EMSA; conditions: 500 nM sDBD
BMADs-Z [16] = biological target: BMADs-Z (UniProt P61244); experiment: EMSA; conditions: 25 nM sDBD; listed twice, second value 82% (possibly BMAD-Z)
BMYCs-Z [17] = biological target: BMYCs-Z (UniProt P61244); experiment: EMSA; conditions: 25 nM sDBD; listed twice, second value 19% (possibly BMYC-Z)
STR116 (B11-Z6) [18] = biological target: STR116 (B11-Z6) (UniProt P61244); experiment: EMSA; conditions: 95% CI 13-16; B11-Z6 14 in Table 14
STR118 (B11-Z8) [19] = biological target: STR118 (B11-Z8) (UniProt P61244); experiment: EMSA; conditions: 95% CI 3.0-4.0; B11-Z8 4.2 in Table 14
B-ZM4 [20] = biological target: B-ZM4 (UniProt P61244); experiment: competition; conditions: MAX competition at 500 nM
B1-Z2 helical tetramer [21] = system: T3, B1-Z2 helical tetramer; experiment: competition; conditions: helical tetramer vs MAX
B10-Z6 [22] = biological target: B10-Z6 (UniProt P61244); experiment: competition; conditions: vs MAX
B11-Z4 [23] = biological target: B11-Z4 (UniProt P61244); experiment: competition; conditions: vs MAX
B11-ZM4 [24] = experiment: competition; conditions: vs MAX
B12-Z6 [25] = system: T7, B12-Z6; experiment: competition; conditions: vs MAX
BLI1-Z [26] = biological target: BLI1-Z (UniProt P61244); experiment: competition; conditions: vs MAX; 50% at 500 nM in Table 16
BLI1-ZL1 [27] = biological target: T19, BLI1-ZL1; experiment: competition; conditions: vs MAX
BLI1-ZM4 [28] = biological target: BLI1-ZM4 (UniProt P61244); experiment: competition; conditions: vs MAX
BLI1s-Z [29] = biological target: BLI1s-Z (UniProt P61244); experiment: competition; conditions: MAX competition at 500 nM
BLI2-Z [30] = experiment: competition; conditions: MAX competition at 500 nM
BMAD-Z = BMAD-Z (UniProt P61244); experiment: competition; conditions: MAX competition at 500 nM
BMADs-Z [31] = biological target: BMADs-Z (UniProt P61244); experiment: competition; conditions: MAX competition at 500 nM
BMYC-Z = BMYC-Z (UniProt P61244); experiment: competition; conditions: MAX competition at 500 nM
BMYCs-Z [32] = biological target: BMYCs-Z (UniProt P61244); experiment: competition; conditions: MAX competition at 500 nM
STR116 (B11-Z6) [33] = biological target: STR116 (B11-Z6) (UniProt P61244); experiment: competition; conditions: vs MAX/MAX 30 nM; Table 15 gives 65 for B11-Z6 (conflict); vs MYC/MAX 1.0 uM
STR118 (B11-Z8) [34] = biological target: STR118 (B11-Z8) (UniProt P61244); experiment: competition; conditions: vs MAX/MAX 30 nM; Table 15 gives 79 for B11-Z8; vs MYC/MAX 170 nM

E-box probe
Kd [1]: > 2000 nM
Kd [2]: 16 nM
Kd (B-Z helical tetramer): 2 nM
Kd (B-Z1): 58 nM
Kd (B-Z2): 22 nM
Kd (B-Z3): 18 nM
Kd (B-Z4): 20 nM
Kd [3]: 98 nM
Kd (B-ZL1): 20 nM
binding signal (B-ZM3): 53 % bound
Kd (B-ZM4 [4]): 8 nM
Kd [5]: > 2000 nM
Kd (B1-Z1): 49 nM
Kd (B1-Z2 helical tetramer [6]): 1.8 nM
Kd (B1-Z2): 26 nM
Kd (B1-Z4): 40 nM
Kd (B1-Z): 18 nM
Kd (B10-Z6 [7]): 16 nM
Kd (B11-Z10): 4.8 nM
Kd (B11-Z4 [8]): 18 nM
Kd (B11-Z7): 22 nM
Kd (B11-Z70): 11 nM
Kd (B11-Z80 (STR1180)): 2.7 nM
Kd (B11-Z81): > 100 nM
Kd (B11-ZM4 [9]): 21 nM
Kd (B11s-Z8): 6.5 nM
Kd (B12-Z6 [10]): 8 nM
Kd (B2-Z2): 18 nM
Kd (B2-Z4): 15 nM
Kd (B2-Z): 19 nM
Kd (B3-Z): 77 nM
Kd (B4-Z): 239 nM
Kd (B5-Z4): 111 nM
Kd (B6-Z4): 57 nM
Kd (B7-Z4): 234 nM
Kd (B7-Z): 169 nM
Kd (B8-Z4): 164 nM
Kd (B8-Z): 66 nM
Kd (BLI1-Z [11]): 8.3 nM
Kd (BLI1-ZL1 [12]): 25 nM
Kd (BLI1-ZM4 [13]): 10 nM
Kd (BLI1-ZM5): 2.8 nM
binding signal (BLI1s-Z [14]): 50 % bound
binding signal (BLI2-ZL1): 54 % bound
binding signal (BLI2-Z [15]): 72 % bound
binding signal (BMADs-Z [16]): 63 % bound
binding signal (BMYCs-Z [17]): 27 % bound
Kd (STR116 (B11-Z6) [18]): 14 nM
Kd (STR118 (B11-Z8) [19]): 3.5 nM
activity (B-ZM4 [20]): 41%
IC50 (B1-Z2 helical tetramer [21]): 1100 nM
IC50 (B10-Z6 [22]): 326 nM
IC50 (B11-Z4 [23]): 496 nM
IC50 (B11-ZM4 [24]): 560 nM
IC50 (B12-Z6 [25]): 62 nM
IC50 (BLI1-Z [26]): 905 nM
IC50 (BLI1-ZL1 [27]): 935 nM
IC50 (BLI1-ZM4 [28]): 560 nM
activity (BLI1s-Z [29]): 22%
activity (BLI2-Z [30]): 16%
activity (BMAD-Z): 66%
activity (BMADs-Z [31]): 24%
activity (BMYC-Z): 9%
activity (BMYCs-Z [32]): 7%
IC50 (STR116 (B11-Z6) [33]): 400 nM
IC50 (STR118 (B11-Z8) [34]): 61 nM
